Data published in patent US20170056486A1.

B1: … (peptide)
peptide: TYKDYVDLF
B2: … (peptide)
peptide: LYQDHMQYI
B3: … (peptide)
peptide: AYSHLRYVF
B4: … (peptide)
peptide: VFLPRVTEL

Columns and labels:
[1] = biological target: HLA-A*24 (human); assay: UV-exchange ELISA (anti-b2m); yield <20%
[2] = biological target: HLA-A*24 (human); assay: UV-exchange ELISA (anti-b2m); yield 20%-49%

| Binder | peptide exchange yield [1] | peptide exchange yield [2] |
| --- | --- | --- |
| B1 | < 20% | – |
| B2 | – | 20 to 49% |
| B3 | – | 20 to 49% |
| B4 | – | 20 to 49% |
